In the supplement of paper PMC11316812:
± gives the standard deviation of the averaged measurements.

How the values were obtained:
hTERT-HMEC = assay: percentage of EdU-negative (G0-arrested) nuclei per well, 72 h; higher = more G0 arrest; conditions: reference: sequence is the full UniProt precursor, the tested protein was the secreted form or ectodomain
MCF7 = assay: as above; conditions: reference: sequence is the full UniProt precursor, the tested protein was the secreted form or ectodomain
[1] = protein concentration 0.0225 µM
[2] = protein concentration 0.0357143 µM
[3] = protein concentration 0.357143 µM
[4] = protein concentration 0.0257143 µM
[5] = protein concentration 0.257143 µM
[6] = protein concentration 0.03125 µM
[7] = protein concentration 0.3125 µM
[8] = protein concentration 0.0117143 µM
[9] = protein concentration 0.117143 µM
[10] = protein concentration 0.0075 µM
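Also: secreted proteins added to cultured cells, EdU pulse at the end, nuclei found by Hoechst imaging, EdU status from nuclear versus surrounding ring intensity ratio, PBS as neutral control.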

MKLLHVFLLFLCFHLRFCKVTYTSQEDLVEKKCLAKKYTHLSCDKVFCQPWQRCIEGTCVCKLPYQCPKNGTAVCATNRRSFPTYCQQKSLECLHPGTKFLNNGTCTAEGKFSVSLKHGNTDSEGIVEVKLVDQDKTMFICKSSWSMREANVACLDLGFQQGADTQRRFKLSDLSINSTECLHVHCRGLETSLAECTFTKRRTMGYQDFADVVCYTQKADSPMDDFFQCVNGKYISQMKACDGINDCGDQSDELCCKACQGKGFHCKSGVCIPSQYQCNGEVDCITGEDEVGCAGFASVTQEETEILTADMDAERRRIKSLLPKLSCGVKNRMHIRRKRIVGGKRAQLGDLPWQVAIKDASGITCGGIYIGGCWILTAAHCLRASKTHRYQIWTTVVDWIHPDLKRIVIEYVDRIIFHENYNAGTYQNDIALIEMKKDGNKKDCELPRSIPACVPWSPYLFQPNDTCIVSGWGREKDNERVFSLQWGEVKLISNCSKFYGNRFYEKEMECAGTYDGSIDACKGDSGGPLVCMDANNVTYVWGVVSWGENCGKPEFPGVYTKVANYFDWISYHVGRPFISQYNV
percentage of EdU-negative (hTERT-HMEC; protein concentration 0.021 µM): 4.11 ± 0.1% | percentage of EdU-negative (hTERT-HMEC; protein concentration 0.21 µM): 4.288 ± 0.024% | percentage of EdU-negative (MCF7; protein concentration 0.021 µM): 24.6 ± 0.98% | percentage of EdU-negative (MCF7; protein concentration 0.21 µM): 27.3 ± 1.3%

MKLMVLVFTIGLTLLLGVQAMPANRLSCYRKILKDHNCHNLPEGVADLTQIDVNVQDHFWDGKGCEMICYCNFSELLCCPKDVFFGPKISFVIPCNNQ
percentage of EdU-negative (hTERT-HMEC; [1]): 5.85 ± 0.5% | percentage of EdU-negative (hTERT-HMEC; protein concentration 0.225 µM): 6.71 ± 0.2% | percentage of EdU-negative (MCF7; [1]): 25.5 ± 2.2% | percentage of EdU-negative (MCF7; protein concentration 0.225 µM): 25.5 ± 3.6%

MKLNLVQIFFMLLMLLLGLGMGLGLGLHMATAVLEESDQPLNEFWSSDSQDKAEATEEGDGTQTTETLVLSNKEVVQPGWPEDPILGEDEVGGNKMLRASALFQSNKDYLRLDQTDRECNDMMAHKMKEPSQSCIAQYAFIHEDLNTVKAVCNSPVIACELKGGKCHKSSRPFDLTLCELSQPDQVTPNCNYLTSVIKKHIIITCNDMKRQLPTGQ [Q5GAN6]
percentage of EdU-negative (hTERT-HMEC; [1]): 5.66 ± 1.3% | percentage of EdU-negative (hTERT-HMEC; protein concentration 0.225 µM): 5.77 ± 0.33% | percentage of EdU-negative (MCF7; [1]): 27.3 ± 3.4% | percentage of EdU-negative (MCF7; protein concentration 0.225 µM): 25.2 ± 0.41%

MKLPLLLALLFGAVSALHLRSETSTFETPLGAKTLPEDEETPEQEMEETPCRELEEEEEWGSGSEDASKKDGAVESISVPDMVDKNLTCPEEEDTVKVVGIPGCQTCRYLLVRSLQTFSQAWFTCRRCYRGNLVSIHNFNINYRIQCSVSALNQGQVWIGGRITGSGRCRRFQWVDGSRWNFAYWAAHQPWSRGGHCVALCTRGGHWRRAHCLRRLPFICSY
percentage of EdU-negative (hTERT-HMEC; [1]): 5.28 ± 0.63% | percentage of EdU-negative (hTERT-HMEC; protein concentration 0.225 µM): 4.45 ± 0.14% | percentage of EdU-negative (MCF7; [1]): 26.5 ± 0.76% | percentage of EdU-negative (MCF7; protein concentration 0.225 µM): 29 ± 0.95%

MKLQCVSLWLLGTILILCSVDNHGLRRCLISTDMHHIEESFQEIKRAIQAKDTFPNVTILSTLETLQIIKPLDVCCVTKNLLAFYVDRVFKDHQEPNPKILRKISSIANSFLYMQKTLRQCQEQRQCHCRQEATNATRVIHDNYDQLEVHAAAIKSLGELDVFLAWINKNHEVMFSA [Q9UHD0]
percentage of EdU-negative (hTERT-HMEC; [2]): 5.09 ± 0.068% | percentage of EdU-negative (hTERT-HMEC; [3]): 6.97 ± 1.1% | percentage of EdU-negative (MCF7; [2]): 24.3 ± 3% | percentage of EdU-negative (MCF7; [3]): 27.41 ± 0.059%

MKLSGMFLLLSLALFCFLTGVFSQGGQVDCGEFQDPKVYCTRESNPHCGSDGQTYGNKCAFCKAIVKSGGKISLKHPGKC [Q6UWN8]
percentage of EdU-negative (hTERT-HMEC; [4]): 4.92 ± 0.69% | percentage of EdU-negative (hTERT-HMEC; [5]): 5.15 ± 0.39% | percentage of EdU-negative (MCF7; [4]): 24.2 ± 1.2% | percentage of EdU-negative (MCF7; [5]): 27.2 ± 3%

MKLVFLVLLFLGALGLCLAGRRRSVQWCAVSQPEATKCFQWQRNMRKVRGPPVSCIKRDSPIQCIQAIAENRADAVTLDGGFIYEAGLAPYKLRPVAAEVYGTERQPRTHYYAVAVVKKGGSFQLNELQGLKSCHTGLRRTAGWNVPIGTLRPFLNWTGPPEPIEAAVARFFSASCVPGADKGQFPNLCRLCAGTGENKCAFSSQEPYFSYSGAFKCLRDGAGDVAFIRESTVFEDLSDEAERDEYELLCPDNTRKPVDKFKDCHLARVPSHAVVARSVNGKEDAIWNLLRQAQEKFGKDKSPKFQLFGSPSGQKDLLFKDSAIGFSRVPPRIDSGLYLGSGYFTAIQNLRKSEEEVAARRARVVWCAVGEQELRKCNQWSGLSEGSVTCSSASTTEDCIALVLKGEADAMSLDGGYVYTAGKCGLVPVLAENYKSQQSSDPDPNCVDRPVEGYLAVAVVRRSDTSLTWNSVKGKKSCHTAVDRTAGWNIPMGLLFNQTGSCKFDEYFSQSCAPGSDPRSNLCALCIGDEQGENKCVPNSNERYYGYTGAFRCLAENAGDVAFVKDVTVLQNTDGNNNEAWAKDLKLADFALLCLDGKRKPVTEARSCHLAMAPNHAVVSRMDKVERLKQVLLHQQAKFGRNGSDCPDKFCLFQSETKNLLFNDNTECLARLHGKTTYEKYLGPQYVAGITNLKKCSTSPLLEACEFLRK [E7EQB2]
percentage of EdU-negative (hTERT-HMEC; protein concentration 0.01 µM): 5.27 ± 0.58% | percentage of EdU-negative (hTERT-HMEC; protein concentration 0.1 µM): 5.87 ± 0.35% | percentage of EdU-negative (MCF7; protein concentration 0.01 µM): 22.5 ± 0.39% | percentage of EdU-negative (MCF7; protein concentration 0.1 µM): 24.6 ± 0.5%

MKLWDVVAVCLVLLHTASAFPLPAGKRPPEAPAEDRSLGRRRAPFALSSDSNMPEDYPDQFDDVMDFIQATIKRLKRSPDKQMAVLPRRERNRQAAAANPENSRGKGRRGQRGKNRGCVLTAIHLNVTDLGLGYETKEELIFRYCSGSCDAAETTYDKILKNLSRNRRLVSDKVGQACCRPIAFDDDLSFLDDNLVYHILRKHSAKRCGCI
percentage of EdU-negative (hTERT-HMEC; [6]): 5.08 ± 0.53% | percentage of EdU-negative (hTERT-HMEC; [7]): 5.86 ± 0.094% | percentage of EdU-negative (MCF7; [6]): 24.9 ± 0.95% | percentage of EdU-negative (MCF7; [7]): 29.1 ± 0.3%

MKMMLVRRFRVLILMVFLVACALHIALDLLPRLERRGARPSGEPGCSCAQPAAEVAAPGWAQVRGRPGEPPAASSAAGDAGWPNKHTLRILQDFSSDPSSNLSSHSLEKLPPAAEPAERALRGRDPGALRPHDPAHRPLLRDPGPRRSESPPGPGGDASLLARLFEHPLYRVAVPPLTEEDVLFNVNSDTRLSPKAAENPDWPHAGAEGAEFLSPGEAAVDSYPNWLKFHIGINRYELYSRHNPAIEALLHDLSSQRITSVAMKSGGTQLKLIMTFQNYGQALFKPMKQTREQETPPDFFYFSDYERHNAEIAAFHLDRILDFRRVPPVAGRMVNMTKEIRDVTRDKKLWRTFFISPANNICFYGECSYYCSTEHALCGKPDQIEGSLAAFLPDLSLAKRKTWRNPWRRSYHKRKKAEWEVDPDYCEEVKQTPPYDSSHRILDVMDMTIFDFLMGNMDRHHYETFEKFGNETFIIHLDNGRGFGKYSHDELSILVPLQQCCRIRKSTYLRLQLLAKEEYKLSLLMAESLRGDQVAPVLYQPHLEALDRRLRVVLKAVRDCVERNGLHSVVDDDLDTEHRAASAR [Q8IXL6]
percentage of EdU-negative (hTERT-HMEC; [8]): 5.97 ± 0.7% | percentage of EdU-negative (hTERT-HMEC; [9]): 6.51 ± 0.12% | percentage of EdU-negative (MCF7; [8]): 23.5 ± 2.4% | percentage of EdU-negative (MCF7; [9]): 24.2 ± 0.32%

MKMRFLGLVVCLVLWTLHSEGSGGKLTAVDPETNMNVSEIISYWGFPSEEYLVETEDGYILCLNRIPHGRKNHSDKGPKPVVFLQHGLLADSSNWVTNLANSSLGFILADAGFDVWMGNSRGNTWSRKHKTLSVSQDEFWAFSYDEMAKYDLPASINFILNKTGQEQVYYVGHSQGTTIGFIAFSQIPELAKRIKMFFALGPVASVAFCTSPMAKLGRLPDHLIKDLFGDKEFLPQSAFLKWLGTHVCTHVILKELCGNLCFLLCGFNERNLNMSRVDVYTTHSPAGTSVQNMLHWSQAVKFQKFQAFDWGSSAKNYFHYNQSYPPTYNVKDMLVPTAVWSGGHDWLADVYDVNILLTQITNLVFHESIPEWEHLDFIWGLDAPWRLYNKIINLMRKYQ
percentage of EdU-negative (hTERT-HMEC; [1]): 4.11 ± 0.31% | percentage of EdU-negative (hTERT-HMEC; protein concentration 0.225 µM): 5.43 ± 0.3% | percentage of EdU-negative (MCF7; [1]): 25.12 ± 0.15% | percentage of EdU-negative (MCF7; protein concentration 0.225 µM): 27.7 ± 0.37%

MKMRRYKLFLMFCMAGLCLISFLHFFKTLSYVTFPRELASLSPNLVSSFFWNNAPVTPQASPEPGGPDLLRTPLYSHSPLLQPLPPSKAAEELHRVDLVLPEDTTEYFVRTKAGGVCFKPGTKMLERPPPGRPEEKPEGANGSSARRPPRYLLSARERTGGRGARRKWVECVCLPGWHGPSCGVPTVVQYSNLPTKERLVPREVPRRVINAINVNHEFDLLDVRFHELGDVVDAFVVCESNFTAYGEPRPLKFREMLTNGTFEYIRHKVLYVFLDHFPPGGRQDGWIADDYLRTFLTQDGVSRLRNLRPDDVFIIDDADEIPARDGVLFLKLYDGWTEPFAFHMRKSLYGFFWKQPGTLEVVSGCTVDMLQAVYGLDGIRLRRRQYYTMPNFRQYENRTGHILVQWSLGSPLHFAGWHCSWCFTPEGIYFKLVSAQNGDFPRWGDYEDKRDLNYIRGLIRTGGWFDGTQQEYPPADPSEHMYAPKYLLKNYDRFHYLLDNPYQEPRSTAAGGWRHRGPEGRPPARGKLDEAEV
percentage of EdU-negative (hTERT-HMEC; [10]): 5.484 ± 0.037% | percentage of EdU-negative (hTERT-HMEC; protein concentration 0.075 µM): 8.45 ± 1.1% | percentage of EdU-negative (MCF7; [10]): 24.8 ± 2.6% | percentage of EdU-negative (MCF7; protein concentration 0.075 µM): 29.1 ± 1.5%

MKMWLLVSHLVIISITTCLAEFTWYRRYGHGVSEEDKGFGPIFEEQPINTIYPEESLEGKVSLNCRARASPFPVYKWRMNNGDVDLTSDRYSMVGGNLVINNPDKQKDAGIYYCLASNNYGMVRSTEATLSFGYLDPFPPEERPEVRVKEGKGMVLLCDPPYHFPDDLSYRWLLNEFPVFITMDKRRFVSQTNGNLYIANVEASDKGNYSCFVSSPSITKSVFSKFIPLIPIPERTTKPYPADIVVQFKDVYALMGQNVTLECFALGNPVPDIRWRKVLEPMPSTAEISTSGAVLKIFNIQLEDEGIYECEAENIRGKDKHQARIYVQAFPEWVEHINDTEVDIGSDLYWPCVATGKPIPTIRWLKNGYAYHKGELRLYDVTFENAGMYQCIAENTYGAIYANAELKILALAPTFEMNPMKKKILAAKGGRVIIECKPKAAPKPKFSWSKGTEWLVNSSRILIWEDGSLEINNITRNDGGIYTCFAENNRGKANSTGTLVITDPTRIILAPINADITVGENATMQCAASFDPALDLTFVWSFNGYVIDFNKENIHYQRNFMLDSNGELLIRNAQLKHAGRYTCTAQTIVDNSSASADLVVRGPPGPPGGLRIEDIRATSVALTWSRGSDNHSPISKYTIQTKTILSDDWKDAKTDPPIIEGNMEAARAVDLIPWMEYEFRVVATNTLGRGEPSIPSNRIKTDGAAPNVAPSDVGGGGGRNRELTITWAPLSREYHYGNNFGYIVAFKPFDGEEWKKVTVTNPDTGRYVHKDETMSPSTAFQVKVKAFNNKGDGPYSLVAVINSAQDAPSEAPTEVGVKVLSSSEISVHWEHVLEKIVESYQIRYWAAHDKEEAANRVQVTSQEYSARLENLLPDTQYFIEVGACNSAGCGPPSDMIEAFTKKAPPSQPPRIISSVRSGSRYIITWDHVVALSNESTVTGYKVLYRPDGQHDGKLYSTHKHSIEVPIPRDGEYVVEVRAHSDGGDGVVSQVKISGAPTLSPSLLGLLLPAFGILVYLEF
percentage of EdU-negative (hTERT-HMEC; [1]): 5.11 ± 0.28% | percentage of EdU-negative (hTERT-HMEC; protein concentration 0.225 µM): 5.87 ± 0.46% | percentage of EdU-negative (MCF7; [1]): 24.5 ± 1.2% | percentage of EdU-negative (MCF7; protein concentration 0.225 µM): 26.2 ± 0.55%
